Our source for the pKd values is paper PMC9482650, “Quantitative fragmentomics allow affinity mapping of interactomes” (Nature Communications, 2022).

Some targets named below: AHNAK1, Q09666; FRMPD2_2, Q68DX3; FRMPD3, Q5JV73; GORASP2, Q9H8Y8; GRID2IP_1, A4D2P6; Inadl_5, Q8NI35; LNX1_3, Q8TBB1; MAGI2_5, Q86UL8; MAST2, Q6P0Q8; PICK1, Q9NRD5; TJP1_3, Q07157.
What all share (assay): holdup assay
Design in all cases: key: below the threshold = too weak to quantify, mostly under pKd 3.1 to 4
Conditions in all cases: plain residues with an end cap or a label only (N-terminal biotin on a linker: ado-ado)

The next test deals with T1, DFNB31_3, Q9P202.
T1 sequence (Q9P202 811-907, limits assumed, looked up): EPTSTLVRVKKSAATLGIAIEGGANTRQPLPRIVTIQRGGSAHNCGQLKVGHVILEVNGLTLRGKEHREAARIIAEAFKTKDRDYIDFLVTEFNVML

The next test has as its target T2, GRIP1_4, Q9Y3R0.
T2 sequence (Q9Y3R0 467-571, limits assumed, looked up): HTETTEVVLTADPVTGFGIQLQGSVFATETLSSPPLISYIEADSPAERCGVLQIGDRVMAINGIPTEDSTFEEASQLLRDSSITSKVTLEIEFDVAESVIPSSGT

In a further test the target is T3, GRIP1_7, Q9Y3R0.
T3 sequence (Q9Y3R0 999-1096, limits assumed, looked up): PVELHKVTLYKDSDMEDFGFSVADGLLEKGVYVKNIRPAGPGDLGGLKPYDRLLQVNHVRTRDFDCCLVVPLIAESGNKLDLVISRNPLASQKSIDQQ

The next test deals with T4, LIN7A, O14910.
T4 sequence (O14910 103-200, limits assumed, looked up): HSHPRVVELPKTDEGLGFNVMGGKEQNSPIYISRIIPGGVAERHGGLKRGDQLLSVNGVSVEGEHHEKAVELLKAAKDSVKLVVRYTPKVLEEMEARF

Another test has as its target T5, LIN7C, Q9NUP9.
T5 sequence (Q9NUP9 88-185, limits assumed, looked up): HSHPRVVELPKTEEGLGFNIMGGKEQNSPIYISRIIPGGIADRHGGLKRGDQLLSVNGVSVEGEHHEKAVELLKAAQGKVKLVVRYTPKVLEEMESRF

Another test addresses T6, MPDZ_5, O75970.
T6 sequence (O75970 695-796, limits assumed, looked up): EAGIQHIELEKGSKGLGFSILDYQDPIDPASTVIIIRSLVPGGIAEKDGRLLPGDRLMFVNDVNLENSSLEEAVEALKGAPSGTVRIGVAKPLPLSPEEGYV

Another test has as its target T7, NHERF3_3, Q5T2W1.
T7 sequence (Q5T2W1 238-333, limits assumed, looked up): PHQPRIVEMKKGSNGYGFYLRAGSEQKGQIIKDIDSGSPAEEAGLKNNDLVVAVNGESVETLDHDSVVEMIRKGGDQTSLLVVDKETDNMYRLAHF

The next test addresses T8, PDZD2_2, O15018.
T8 sequence (O15018 329-429, limits assumed, looked up): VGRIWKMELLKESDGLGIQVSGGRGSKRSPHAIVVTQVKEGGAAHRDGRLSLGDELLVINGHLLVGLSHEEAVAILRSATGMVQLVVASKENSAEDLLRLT

For the next test, the target named is T9, PTPN13_1, Q12923.
T9 sequence (Q12923 1088-1188, limits assumed, looked up): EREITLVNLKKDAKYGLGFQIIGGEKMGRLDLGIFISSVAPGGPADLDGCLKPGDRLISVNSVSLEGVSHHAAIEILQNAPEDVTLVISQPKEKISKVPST

For a further test, the target named is T10, RAPGEF6, Q8TEU7.
T10 sequence (Q8TEU7 525-625, limits assumed, looked up): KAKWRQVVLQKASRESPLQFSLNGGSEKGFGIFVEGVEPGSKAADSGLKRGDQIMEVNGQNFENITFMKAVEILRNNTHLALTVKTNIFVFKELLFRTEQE

The next test addresses T11, SNTB1, Q13884.
T11 sequence (Q13884 107-205, limits assumed, looked up): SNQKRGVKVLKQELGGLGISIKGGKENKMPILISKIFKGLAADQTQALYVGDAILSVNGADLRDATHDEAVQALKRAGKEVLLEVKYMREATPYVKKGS

The next test has as its target T12, SNTG1, Q9NSN8.
T12 sequence (Q9NSN8 52-150, limits assumed, looked up): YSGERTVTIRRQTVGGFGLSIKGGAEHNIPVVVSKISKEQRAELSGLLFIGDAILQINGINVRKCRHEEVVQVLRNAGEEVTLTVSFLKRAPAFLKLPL

For the next test, the target named is T13, SYNJ2BP, P57105.
T13 sequence (P57105 8-110, limits assumed, looked up): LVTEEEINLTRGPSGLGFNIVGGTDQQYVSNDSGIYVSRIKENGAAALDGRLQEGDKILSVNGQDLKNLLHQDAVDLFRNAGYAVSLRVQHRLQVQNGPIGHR

Chain of LNX1_3, Q8TBB1 (Q8TBB1 500-596): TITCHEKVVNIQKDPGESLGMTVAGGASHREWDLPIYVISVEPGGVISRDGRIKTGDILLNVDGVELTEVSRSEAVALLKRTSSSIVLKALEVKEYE
Chain of TJP1_3, Q07157 (Q07157 416-512): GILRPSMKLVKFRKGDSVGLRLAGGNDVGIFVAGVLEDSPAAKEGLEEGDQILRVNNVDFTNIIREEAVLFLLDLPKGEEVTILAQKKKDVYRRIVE
Chain of AHNAK1, Q09666 (Q09666 4-100): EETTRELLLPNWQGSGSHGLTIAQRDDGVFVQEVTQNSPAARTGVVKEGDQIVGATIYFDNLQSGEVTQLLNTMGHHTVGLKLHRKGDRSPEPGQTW
Chain of FRMPD2_2, Q68DX3 (Q68DX3 944-1038): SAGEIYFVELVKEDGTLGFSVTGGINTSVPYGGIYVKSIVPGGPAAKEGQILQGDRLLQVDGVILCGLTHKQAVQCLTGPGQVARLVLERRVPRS
Chain of FRMPD3, Q5JV73 (Q5JV73 12-100): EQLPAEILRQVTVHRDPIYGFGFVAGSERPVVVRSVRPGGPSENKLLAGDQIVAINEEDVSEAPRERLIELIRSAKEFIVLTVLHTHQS
Chain of PICK1, Q9NRD5 (Q9NRD5 17-115): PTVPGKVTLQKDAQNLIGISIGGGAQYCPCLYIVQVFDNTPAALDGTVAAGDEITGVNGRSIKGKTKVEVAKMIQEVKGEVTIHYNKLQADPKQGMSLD
Chain of Inadl_5, Q8NI35 (Q8NI35 673-780): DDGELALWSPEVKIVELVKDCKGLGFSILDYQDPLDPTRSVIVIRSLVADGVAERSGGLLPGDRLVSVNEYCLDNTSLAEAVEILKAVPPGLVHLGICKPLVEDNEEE
Chain of GRID2IP_1, A4D2P6 (A4D2P6 1-87): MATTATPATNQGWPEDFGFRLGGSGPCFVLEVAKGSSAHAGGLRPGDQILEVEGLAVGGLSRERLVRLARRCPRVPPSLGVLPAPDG
Chain of MAST2, Q6P0Q8 (Q6P0Q8 1099-1202): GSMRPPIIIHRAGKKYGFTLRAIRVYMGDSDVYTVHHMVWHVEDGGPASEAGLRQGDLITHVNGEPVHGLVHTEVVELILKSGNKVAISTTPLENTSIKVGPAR
Chain of MAGI2_5, Q86UL8 (Q86UL8 915-1017): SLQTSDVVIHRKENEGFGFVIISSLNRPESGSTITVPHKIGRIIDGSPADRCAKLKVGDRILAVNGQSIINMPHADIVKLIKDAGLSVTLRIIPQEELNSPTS

By pKd is commonly meant the negative decadic logarithm of the Kd, by convention in mol/L. Turning to PMESGICTIV [TTC24, A2A3L6], the pKd result is “below the threshold” with AHNAK1, Q09666; 3.89 with DFNB31_3, Q9P202; 4.29 with FRMPD2_2, Q68DX3; “below the threshold” in the test with FRMPD3, Q5JV73; 4.64 with GORASP2, Q9H8Y8; “below the threshold” with GRID2IP_1, A4D2P6. The negative logarithm of the Kd (pKd) entry with GRIP1_4, Q9Y3R0 was “below the threshold”; with GRIP1_7, Q9Y3R0 it was “below the threshold”; with Inadl_5, Q8NI35 it was 3.87; in the test with LIN7A, O14910, “below the threshold”; with LIN7C, Q9NUP9, “below the threshold”; with LNX1_3, Q8TBB1 it was 3.53. Also, the negative logarithm of the Kd (pKd) in the test with MAGI2_5, Q86UL8 was 4.63; in the test with MAST2, Q6P0Q8, 5.23; in the test with MPDZ_5, O75970, 3.56; with NHERF3_3, Q5T2W1, “below the threshold”; with PDZD2_2, O15018 it was 4.68; with PICK1, Q9NRD5, 4.3. In addition, the negative logarithm of the Kd (pKd) entry with PTPN13_1, Q12923 was “below the threshold”; in the test with RAPGEF6, Q8TEU7, “below the threshold”; with SNTB1, Q13884, 4.58; with SNTG1, Q9NSN8, 4.06; in the test with SYNJ2BP, P57105, 3.79; with TJP1_3, Q07157, “below the threshold”.

As for RALRASESGI [ADGRE5, P48960], the negative logarithm of the Kd (pKd) entry with AHNAK1, Q09666 was “below the threshold”; with DFNB31_3, Q9P202 it was 3.72; with FRMPD2_2, Q68DX3 it was “below the threshold”; with FRMPD3, Q5JV73, “below the threshold”; in the test with GORASP2, Q9H8Y8 it was “below the threshold”; with GRID2IP_1, A4D2P6, “below the threshold”. Also, the negative-log Kd (pKd) entry with GRIP1_4, Q9Y3R0 was “below the threshold”; with GRIP1_7, Q9Y3R0 it was “below the threshold”; with Inadl_5, Q8NI35 it was “below the threshold”; in the test with LIN7A, O14910, “below the threshold”; in the test with LIN7C, Q9NUP9, 4.07; in the test with LNX1_3, Q8TBB1, “below the threshold”. For the same molecule, the pKd result in the test with MAGI2_5, Q86UL8 was “below the threshold”; with MAST2, Q6P0Q8, 3.82; with MPDZ_5, O75970, “below the threshold”; in the test with NHERF3_3, Q5T2W1 it was “below the threshold”; in the test with PDZD2_2, O15018, “below the threshold”; in the test with PICK1, Q9NRD5 it was “below the threshold”. Also, the pKd entry in the test with PTPN13_1, Q12923 is “below the threshold”; in the test with RAPGEF6, Q8TEU7, “below the threshold”; in the test with SNTB1, Q13884, “below the threshold”; with SNTG1, Q9NSN8, “below the threshold”; with SYNJ2BP, P57105, 3.79; with TJP1_3, Q07157 it was “below the threshold”.

On to GCQGETEDVL [PTH2R, P49190], for which the pKd result with AHNAK1, Q09666 is given as “below the threshold”; with DFNB31_3, Q9P202, “below the threshold”; with FRMPD2_2, Q68DX3, “below the threshold”; in the test with FRMPD3, Q5JV73 it was “below the threshold”; with GORASP2, Q9H8Y8, “below the threshold”; with GRID2IP_1, A4D2P6, “below the threshold”. The pKd result in the test with GRIP1_4, Q9Y3R0 was “below the threshold”; with GRIP1_7, Q9Y3R0 it was “below the threshold”; with Inadl_5, Q8NI35 it was “below the threshold”; with LIN7A, O14910 it was “below the threshold”; in the test with LIN7C, Q9NUP9, “below the threshold”; with LNX1_3, Q8TBB1 it was “below the threshold”. For the same molecule, the pKd result is “below the threshold” in the test with MAGI2_5, Q86UL8; 4.46 in the test with MAST2, Q6P0Q8; “below the threshold” in the test with MPDZ_5, O75970; “below the threshold” in the test with NHERF3_3, Q5T2W1; “below the threshold” with PDZD2_2, O15018; 3.99 with PICK1, Q9NRD5. Moreover, the pKd entry with PTPN13_1, Q12923 is given as “below the threshold”; with RAPGEF6, Q8TEU7, “below the threshold”; in the test with SNTB1, Q13884 it was “below the threshold”; with SNTG1, Q9NSN8, “below the threshold”; with SYNJ2BP, P57105, “below the threshold”; with TJP1_3, Q07157, “below the threshold”.

On to SRPRPDDLEI [GJA1, P17302], for which the pKd result is “below the threshold” with AHNAK1, Q09666; “below the threshold” with DFNB31_3, Q9P202; “below the threshold” with FRMPD2_2, Q68DX3; “below the threshold” with FRMPD3, Q5JV73; “below the threshold” in the test with GORASP2, Q9H8Y8; “below the threshold” in the test with GRID2IP_1, A4D2P6. Moreover, the pKd result with GRIP1_4, Q9Y3R0 is recorded as “below the threshold”; with GRIP1_7, Q9Y3R0, “below the threshold”; with Inadl_5, Q8NI35 it was “below the threshold”; with LIN7A, O14910 it was “below the threshold”; with LIN7C, Q9NUP9, “below the threshold”; with LNX1_3, Q8TBB1, “below the threshold”. For the same molecule, the pKd result in the test with MAGI2_5, Q86UL8 was “below the threshold”; in the test with MAST2, Q6P0Q8, 3.75; with MPDZ_5, O75970, “below the threshold”; with NHERF3_3, Q5T2W1, “below the threshold”; in the test with PDZD2_2, O15018, “below the threshold”; with PICK1, Q9NRD5, “below the threshold”. The negative-log Kd (pKd) entry in the test with PTPN13_1, Q12923 was “below the threshold”; with RAPGEF6, Q8TEU7 it was “below the threshold”; with SNTB1, Q13884 it was “below the threshold”; with SNTG1, Q9NSN8, “below the threshold”; with SYNJ2BP, P57105, “below the threshold”; in the test with TJP1_3, Q07157, “below the threshold”.
